Data set [1] concerns the target Hel308 Mbu-E284Faz E284Faz (Methanococcoides burtonii) (UniProt Q12WZ6). The note with it: four nitroindoles between SEQ 155 3' end and SEQ 154 5' end; percent of movements reaching polyT; nanopore; 960 mM KCl, 10 mM MgCl2, 1 mM ATP, +120 mV.
The target of data set [2] is Hel308 Mbu-E284Faz heat treated E284Faz (Methanococcoides burtonii) (UniProt Q12WZ6). The note with it: four nitroindoles between SEQ 155 3' end and SEQ 154 5' end; percent of movements reaching polyT; 500 nM enzyme; nanopore; 960 mM KCl, 10 mM MgCl2, 1 mM ATP.

The text below walks through data of patent US20240417704.

Sequence of Hel308 Mbu-E284Faz E284Faz (Methanococcoides burtonii) (Q12WZ6 whole entry): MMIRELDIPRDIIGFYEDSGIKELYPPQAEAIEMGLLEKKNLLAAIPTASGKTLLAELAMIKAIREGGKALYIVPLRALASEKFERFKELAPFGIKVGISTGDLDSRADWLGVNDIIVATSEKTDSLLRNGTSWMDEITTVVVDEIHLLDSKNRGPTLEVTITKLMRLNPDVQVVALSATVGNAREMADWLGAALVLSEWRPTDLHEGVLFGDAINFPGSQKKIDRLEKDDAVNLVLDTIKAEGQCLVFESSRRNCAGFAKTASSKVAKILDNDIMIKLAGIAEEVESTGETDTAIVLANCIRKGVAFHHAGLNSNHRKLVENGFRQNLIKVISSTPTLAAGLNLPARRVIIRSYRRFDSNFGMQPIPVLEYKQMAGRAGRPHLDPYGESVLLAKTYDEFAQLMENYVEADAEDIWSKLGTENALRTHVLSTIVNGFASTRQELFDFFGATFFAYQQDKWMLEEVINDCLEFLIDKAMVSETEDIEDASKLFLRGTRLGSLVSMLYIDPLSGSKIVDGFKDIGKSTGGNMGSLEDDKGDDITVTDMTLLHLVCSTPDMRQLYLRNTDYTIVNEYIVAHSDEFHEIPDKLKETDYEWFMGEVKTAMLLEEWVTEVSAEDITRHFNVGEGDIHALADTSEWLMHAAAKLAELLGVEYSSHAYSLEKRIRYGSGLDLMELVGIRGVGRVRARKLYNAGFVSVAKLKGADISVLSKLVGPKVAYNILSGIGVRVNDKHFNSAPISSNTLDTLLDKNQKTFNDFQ
Sequence of Hel308 Mbu-E284Faz heat treated E284Faz (Methanococcoides burtonii) (Q12WZ6 whole entry): as above

Consider 3.6 kb DNA, for which the activity is 28% in data set [1] and 71% in data set [2].
